Assay results published in paper PMC7610968 (Molecular cell, 2007).

Target: T1, szz-tagged mutant Rrp44-cat protein (S. cerevisiae, UniProt Q08162 1-1001, D551N)
T1 sequence (looked up): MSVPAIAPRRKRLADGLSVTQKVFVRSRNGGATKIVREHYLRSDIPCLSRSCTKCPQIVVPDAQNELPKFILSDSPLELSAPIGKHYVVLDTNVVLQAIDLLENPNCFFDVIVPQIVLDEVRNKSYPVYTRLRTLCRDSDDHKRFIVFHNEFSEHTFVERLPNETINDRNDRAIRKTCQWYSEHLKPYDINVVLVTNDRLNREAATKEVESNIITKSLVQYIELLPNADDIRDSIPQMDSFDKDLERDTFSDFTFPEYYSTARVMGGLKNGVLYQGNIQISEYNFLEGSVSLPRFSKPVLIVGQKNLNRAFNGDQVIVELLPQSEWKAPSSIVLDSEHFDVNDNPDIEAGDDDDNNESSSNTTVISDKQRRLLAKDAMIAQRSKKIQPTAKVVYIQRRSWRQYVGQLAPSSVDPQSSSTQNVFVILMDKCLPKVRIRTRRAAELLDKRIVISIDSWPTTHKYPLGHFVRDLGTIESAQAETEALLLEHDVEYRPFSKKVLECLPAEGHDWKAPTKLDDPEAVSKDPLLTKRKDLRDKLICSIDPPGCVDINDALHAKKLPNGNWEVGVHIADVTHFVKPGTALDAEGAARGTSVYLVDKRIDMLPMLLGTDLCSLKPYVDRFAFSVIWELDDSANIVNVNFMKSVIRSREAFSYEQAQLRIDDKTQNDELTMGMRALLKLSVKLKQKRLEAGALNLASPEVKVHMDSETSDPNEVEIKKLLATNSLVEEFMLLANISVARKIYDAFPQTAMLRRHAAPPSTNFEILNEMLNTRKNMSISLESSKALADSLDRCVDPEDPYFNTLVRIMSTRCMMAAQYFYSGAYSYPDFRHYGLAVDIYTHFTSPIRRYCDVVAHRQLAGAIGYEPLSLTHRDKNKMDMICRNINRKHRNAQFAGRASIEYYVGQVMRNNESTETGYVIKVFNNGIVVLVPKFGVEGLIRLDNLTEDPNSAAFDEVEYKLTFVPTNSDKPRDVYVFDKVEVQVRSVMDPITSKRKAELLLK
Assay: co-IP

B1: Rrp6 (natural protein, UniProt Q12149 1-733, looked up)
chain: MTSENPDVLLSRVINVVRAASSLASQDVDFYKNLDRGFSKDLKSKADKLADMANEIILSIDEHHESFELKEEDISDLWNNFGNIMDNLLEMSDHSLDKLNCAINSKSRGSDLQYLGEFSGKNFSPTKRVEKPQLKFKSPIDNSESHPFIPLLKEKPNALKPLSESLRLVDDDENNPSHYPHPYEYEIDHQEYSPEILQIREEIPSKSWDDSVPIWVDTSTELESMLEDLKNTKEIAVDLEHHDYRSYYGIVCLMQISTRERDYLVDTLKLRENLHILNEVFTNPSIVKVFHGAFMDIIWLQRDLGLYVVGLFDTYHASKAIGLPRHSLAYLLENFANFKTSKKYQLADWRIRPLSKPMTAYARADTHFLLNIYDQLRNKLIESNKLAGVLYESRNVAKRRFEYSKYRPLTPSSEVYSPIEKESPWKILMYQYNIPPEREVLVRELYQWRDLIARRDDESPRFVMPNQLLAALVAYTPTDVIGVVSLTNGVTEHVRQNAKLLANLIRDALRNIKNTNEEATPIPSSETKADGILLETISVPQIRDVMERFSVLCNSNISKSRAKPVTNSSILLGKILPREEHDIAYSKDGLPNKVKTEDIRIRAQNFKSALANLEDIIFEIEKPLVVPVKLEEIKTVDPASAPNHSPEIDNLDDLVVLKKKNIQKKQPAKEKGVTEKDAVDYSKIPNILSNKPGQNNRQQKKRRFDPSSSDSNGPRAAKKRRPAAKGKNLSFKR
fold recovered against wild-type Rrp44-szz: ~2 fold
